Experiment: yeast display, Sf9 membrane polyspecificity reagent, FACS + sequencing; frameworks hold sequencing errors
How it was run: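 After 36–48 hours of galactose induction, yeast (Saccharomyces cerevisiae BJ5465) displaying a synthetic nanobody library were stained at 4 °C for 1 hour with 10% biotinylated, detergent-solubilized Sf9 membrane reagent. Streptavidin microbeads enriched the stained cells before FACS sorting into low and high (top ~1%) gates on anti-HA and streptavidin fluorescence. Each clone's polyreactivity label reflects its gate of origin.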

Sequence	polyreactivity (PSR sort gate)
QVNLVESGGGLVQAGGSLRLSCAASGRTFRFYVMGWYRQAPGKERELVAVIRYRGGSTYYADSVKGRFTISRDNAKNTVYLHMNSLKPEDTAVYYCNADFLLAGNEYDFWGQGTQVTVSS	high polyreactivity
QVQLVESGGGLVQAGGSLRLSCAASGSIFSVYAMGWYRQAPGKERELVASITSGGRTKYADSVKGRFTISRDNAKNTVYLQMNSLKQEDTAVYYCAKDGGGLLRWYTDEYDYWGQGTQVTVSS	low polyreactivity
QVQLVESGGGLVQAGGSLRLSCAASGSIFYGYTMGWYRQAPGKERELVAGITRSGTSTYYADSVKGRFTISRDNAKNTVYLQMNSLNPQDTAVYYCARVGLSKRYGSWGQGTEVTVSS	high polyreactivity
QVQLVESGGGLVQAGGSLRISCAASGRTFDYNAMGWYRQAPGKERELVAAIRFGGGSTYYADSVKGRFTISRDNAKNTVYFQMNSLKPEDTAVYYCNASPLWIGWEIVPVGSSHYDYWGQGTQVTVSS	low polyreactivity
QVQLVESGGGLVQAGCSLRLSCAASGSIFSAYSMGWYRPAPGKEREFVAAITRRGGNTYYADSVKGRFTISRDNAKNTVYLQMKSLKPEDTAVYYCAASYNGLWHGDYDYWGQGTQVTVSS	low polyreactivity
QVQLVESGGGLVQAGGSLRLSCAASGITFRTYAMGWNRQAPGKERELVAAITRRGGSTYYADSVKGRFTISRDNAKNTVYLQMNSLKPEDTAVYYCAVRHNGIQASVGYDYWGQGTQVTVSS	high polyreactivity
QVQLVESGGGLVQAGGSLRLSCAASGRNLQQYVMGWYRQAPGKERELVAAITRGGRTNYADSVKGRFTISRDYAKNTVYLLMNSLKQEDTAVYYCKTRYPSRVVAWLDYWGQGTQVNVSS	low polyreactivity
QVQLVESGGGLVQAGGSLRLSCAATGSNFGSNAMGWYRQAPGKEMELVAAITESGGDTYYADSVKGRFTISRDNAKNTVYLQMNSLKPEDSAVFYCAARYFGGIVDVSLFREYGSWGQGTQVTVSS	low polyreactivity
QVQLVESGGGLVQAGGSLRLSCAASGSTFFKYAMGWYRQAPGKERELVAGITSDGSTNYADSVKGRFTISRDNAKNTVYLQMNSLKPEDTAVYYCAADGSKWGVGTYDYWGQGTQVTVSS	low polyreactivity
QVQLVESGGGLVQAGGSLRLSCAASGRIFVRNAMGWYRQAPGKERELVAAISWRGTSTYYADSVKGRFTISRDNAKNTVYLQMNSLKPEDTAVYYCAKRISGYRGDYWGQGTQVTVSS	high polyreactivity
QVQLVESGGGLVQAGASLRLSCAASGSIFTRNTMGWYRQAPGKERELVARISGGRTNYADSVKGRFTISRDNAKNTVYLQMYSLKPVDTAVYYCAARGLYTPTKRSGDPYYYWGQGSQVTVSS	high polyreactivity
QVQLVESGGGLGQAGGSLRLSCAASGRTFRYYAKGWYRQAPGKERELVAAINRGGSTSYADSVKGRFTISRDNAKNTVYLQMNSLKPEDTAVYYCNVDKYRLVGFHSPYDYWGQGTQVTVSS	high polyreactivity
QVQLVESWGGLVQAGGSLRLSCAASGYISNAMGWYRQAPGKERELVAVITRGGSTNYADSVKGRFTISRDNAKNTVYLQMNSLKPEDTAVYYCAKDVPYRRVRSEYWGQGTQVTVSS	low polyreactivity
QVQLVESGGGLVQAGGSLRLSCAASGSTFGYNAMGWYRQAPGKERELVAAISRSGGRTYYADSVKGRFTISRDNAKNTVYLQMNSLKPEDTAVYFCATYYTNKVPARYYWGQGTQVTVSS	high polyreactivity
QVQLEESGAGLVQAGGSLRLSCAASGRTFWFYTMGLYRQAPGKERELVAAISSAGSTNYADSVKGRFTISRDNAKNTVYLQMNSLKPEDTAVYYCNARFPVGPSEDAVWYYPKYDYWGQGTQVTVSS	low polyreactivity
QVQLVESGGGLVQAGRSLRLSCAASGITFTGYALGWSRQATGKERELVAAISKRGARTYYADSVKGRFTISRDNAKNTVYLQMNSLKPEDTAVYYCAADSTAQDIAGLYYWGQGTQVTVSS	high polyreactivity
QVQLVESGGGLVHAGGSLRLSCAASGRIFAPYAMGWYRQAPGKERELVAAITSRGGSTYYADSVKGRFTISRDTAKNTVYLQMNSLKPEDTAVYYCNADYYGRPYYYWGQGTQVTVSS	high polyreactivity
QVQLVESGGGLVQAGGSLRLSCAASGSIFRPYVMGWYRQAPGKERELVAAISSRGGDTYYADSVKGRFTISRDNAKNTVYLQMNSLKPEDTAVYYCAAVEFRDSTFVVVSSPTSKSDYWGQGTQVTVSS	low polyreactivity
QVQLVDSGGGLVQAGGSLRLSCAASGFIFRRNAMGWYRQAPGKERELVAAITGGGGSTYYADSVKGRFTISRDNAKNTVYLQMNSLKPEDTAVYYCNALPARRRWQVDYWGQGTQVTVSS	high polyreactivity
QVQLVESGGGLVQAGGSLRLSCAASGRIFGLYAMGWYRQAPGKERELVAAITDSDGSTYYADSVKGRFTISRDNAKNTVYLQMNSLKPEDTAVYYCNKRLPLIRTSWAYDYWGQGTQVTVSS	low polyreactivity
QVQLVESAGGLVQAGGSLRLSCAASGIIFRPNPLGWYRQAPGKERELVAAISKRGGSTYYADSVKGRFTISRDNAKNTVYLQMNSLKPEDTAVYYCAKRQQQSSGYDYWGQGTQVTVSS	high polyreactivity
QVQLVESGGGLVQAGGSLRLSCAASGYTFAGYAMGWYRQAPGKERELVAAISRNGGTTYYADSVKGRFTISRDNAKNTVYLQMNSLKPEDTADYYCNKRGWYSVYRRDYWGQGTQVTVSS	high polyreactivity

Sequence	polyreactivity (PSR sort gate)
QVQLVESGGGLVQAGGSLRLSCAASGSNFTSYAMGWYRQAPGKERELVAAISKSGGSTYYADSVKGRFTISRDNAKNTVYLQMNSLKPEDTAVFYCAARYNVRSYTTSRFDYWGQGTQVTVSS	low polyreactivity
QVQLVESGGGLVQAGGRLRLSCAASVFTYKSYAMVWYRQAPGKERELVASIDKSTGNTFYADSVKGRFTISRDNAKNTVYLQMNSLKPEDTAVYYCAVDLLRSESHSKHIIYDYWGQGTQVTVSS	low polyreactivity
QVQLVESGGGLVQAGGSLRLSCAASGSIFEANDMGWYRQAPGKERELVAAIDANTGSTYYADSVKGRFTISRDNAKNTVYLQMNSLKPEDTAVYYCNAQVYLHTAYDYWGQGTQVTVSS	low polyreactivity
QVELVESGGGLVQAGGSLRLSCAASGFTFDRYAMGWYRQAPGTERELVAALTRRGTTTYYADSVKGRFTISRDNAKNTVYLQMNSLKPEDTAVYYCAAKRGSVSRPDYGANDESWGQGTQVTVSS	high polyreactivity
QVQLVESGGGLVHAGGSLRLSCAAYGFIFRYYAMGRYRQAPGKEMELVATISSGGRTYYADSVKGRFTISRDNAKNTVYLQMNSLKPEDTAVYYCAKDYSWASYNHDYWGQGTQVTVSS	low polyreactivity
QVQLVESGGGLVQAGGSLRLSCAASGSTFPGNAMGWYRQAPGKERELVASIRRSGGSTYYADSVKGRFTISRDNAKNTVYLQMNSLKPADTAVDDCAKRTFLVSGPRSYGCYGVYYWGQGTQVTVSS	high polyreactivity
QFQLVESGGGLVQAGGSLRLSCAASGRTFGFYAMGWYRQAPGKERELVASITWRGGRTYYADSVKGRFTISRDNAKNTVYLQMNSLKPEDTAVYYCAAVTFSYDGYDYWGQGTQVTVSS	low polyreactivity
QVQLVESGGGLVQAGGSLRLSCDPSGLTFNTYAMGWYRQAPGKERELVAAISSDGSTYYADSVKGRFTITRDNAKNTVYLQMNSLKPEDTAVYYCAATSFWWDLAGYYHWYDYWGQGTQVTVSS	high polyreactivity
QVQLVESGGGLVQAGGSLRLSCAASGSIFAYYAMGGYRQAPGKEREFVAAISKRGGRTYYADSVKGRFTISRDNAKNTVYLQMNSLKPEDTAVYYCAAPWAYPRSGGDYWGQGTQVTVSS	high polyreactivity
QVQLVESGGGLVHAGGSLRLSCAAYGSTFVRNAMGCYRQAPGKERELVAAITSRGGSTYYADSVKGRFTISRDNAKNTVYLQMNSLKPEDTAVYYCAARFGVKRGQYDYWGQGTQVTVSS	high polyreactivity
QVQLVESGGGLVQAGGSLLLSCAASGSIFSAYAMGWDRQAPGKERQLVAGISKRGGSTYYADSVKGRFTISRDNAKNTVYLQMNSLKPEDTAVYYCNAARYPYARAVTYHYPSYGYWGQGTQVTVSS	high polyreactivity
QVQLVESGGGLVQAGGSLRLSCAASGITFSVYTMGWYRQAPGKERELVAAIDSDGITNYADSVKGRFTISRDNAKNTVYLQMNSLKPEDTAVYYCAKQSGRADGVSGFDYWGQGTQVTVSS	low polyreactivity
QVQLLESGGGLVQAGGSLRLSCAASGLTICYYAMGWYRQAPGKEREYVAAITSRGGDTYYADSVKGRFTISRDNAKNTVYLEMNSLKPEDTAVYYCAVRPRYYGTYRYYYWGQGTQVTVSS	high polyreactivity
QVQLVESGGGLVQAGGSLRLSCAASGSIYYNAMGWYRQAPGKERELVAAISTSGGTTYYADSVKGRFTISRDNAKNTVYLQMNSLKPEDTAVYYCNARPSRRGAFDYWGQGTQVTVSS	high polyreactivity
QVQLVESGGGLVQAGGSLRLSCAASGIIFFPYAMVWYRQAPGKEREFVAAITSRGGSTYYADSVKGRFTISRDNAKNTVYLQMNSLNPEDTAVYYFAADGWLWSFTGDGWWFDYWGQGTQVTVSS	low polyreactivity
QIQLVESGGGFVQAGGSLRLSCAASGFTFHYYAMGWYSQAPGKERELGAAISWSSGRTYYADSVKGRFTISRDNAQNTVYLQMNSLKPEDTAVYSCAASSYNRGDYWGQGTQVTVSS	low polyreactivity
QVQLVESGGGLVQAGGSLRLSCAASGSTFSYYAMGWYRQAPGKERELVAAIRSDGGSTYYADSVKGRFTISRDNAKNTVYLQMNSLKPEDTAVYYCNAPYRRSAKFRRYGYDYWGQGTQVTVSS	high polyreactivity
QVQLVESGGGLVQAGGSLRLSCAASGITFRANAMGWYRQAPGKERELVAAISARGGSTYYADSVKGRFTISRDNAKNTVYLQMNSLKPEDTAVYYCNAVAYRSRSEYDYWGQGTQVTVSS	high polyreactivity
QVQLEESGGGLVQAGGSLRLSCAASGFTFRYYAMGWYRQAPGKERELVASISSSGGSTNYADSVKGRFTISRDNAKNTVYLQMNSLKPEDTAVYYCAVPPYTWLYDYWGQGTQVTVSS	high polyreactivity
QVQLVESGGGLVQAGGSLRLSCAASGSIFGYNDMGWYRQAPGKERELVATITWGGGRTRYADSVKGRFTISRDNAKNTVYFQMNSLKPEDTAVYYCAAGYYRLWVRYDYWGQGTQVTVSS	low polyreactivity
QVQLVESGGGLVQAGGSLRLSCAASGFTFGYYGMGWYRQAPGKERELVAAISWSGGSTYYADSVKGRFTISRDNAKNTVYLQMNSLKPEDTAVDYCNADYAGFYQRRYIEDDYWGQGTQVTVSS	low polyreactivity

Reference: the nanobody polyreactivity screen of Harvey et al. (2022)
